From US20240108766A1 (Bayer, published 2024)

What was measured:
[1] = biological target: T1, human LRRC15 extracellular domain with C-terminal His tag (human, UniProt Q8TF66 22-538); experiment: calculated from SPR kd, 20°C
T1 construct: Recombinant, made in HEK293; the entry holds the extracellular domain and the His tag; SPR analyte; also called TPP-1545; hLRRC15 CT-His
T1 sequence: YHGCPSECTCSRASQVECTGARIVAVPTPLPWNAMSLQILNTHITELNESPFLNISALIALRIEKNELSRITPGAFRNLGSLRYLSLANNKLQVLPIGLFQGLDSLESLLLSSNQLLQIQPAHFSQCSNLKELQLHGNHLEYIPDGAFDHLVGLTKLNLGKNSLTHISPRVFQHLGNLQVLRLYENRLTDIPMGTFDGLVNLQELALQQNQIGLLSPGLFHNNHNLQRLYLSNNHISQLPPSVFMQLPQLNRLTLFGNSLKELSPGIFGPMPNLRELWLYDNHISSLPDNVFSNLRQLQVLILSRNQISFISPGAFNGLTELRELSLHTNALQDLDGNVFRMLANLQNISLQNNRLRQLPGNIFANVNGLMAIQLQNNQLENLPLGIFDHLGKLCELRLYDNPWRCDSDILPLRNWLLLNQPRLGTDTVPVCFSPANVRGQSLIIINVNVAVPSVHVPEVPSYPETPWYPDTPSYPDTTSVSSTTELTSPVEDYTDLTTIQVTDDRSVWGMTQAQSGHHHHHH
Procedure: (§1) To assess if anti-LRRC-15 antibodies show a difference in binding at different temperatures, binding assays were conducted using surface plasmon resonance (SPR). Binding assays were performed on a Biacore T200 instrument at temperatures of 10° C., 20° C., 25° C. and 37° C. with assay buffer HBS EP+, 1 mg/ml BSA (bovine serum albumine), 300 mM NaCl, 0.05% NaN₃. Antibodies were captured via anti-human Fc IgGs covalently amine coupled to a CM5 sensor chip and human LRRC15 was used as an analyte in a concentration series from 1.56-200 nM in multi cycle kinetics mode. Pre-experiments were conducted to have an equal capture level at each temperature. Obtained sensorgrams were fitted to a 1:1 Langmuir binding model to derive kinetic data.

[2] = biological target: T1, human LRRC15 extracellular domain with …; experiment: SPR thermodynamics (van't Hoff/Eyring), 10-37°C
Procedure: as §1, with “Thermodynamics help to explain why an interaction is happening and what the driving forces for the interaction are. To” for “To”, “the thermodynamic parameters for anti-LRRC15” for “if anti-LRRC-15”, “antibodies” for “antibodies show a difference in binding at different temperatures,”, “BSA,” for “BSA (bovine serum albumine),”, “NaN3.” for “NaN₃.”, “data. Thermodynamic parameters were obtained using the integrated thermodynamics wizard in the Biacore T200 software. Van′t Hoff and Eyring plots were calculated and plotted and thermodynamic parameters were derived.” for “data.”

[3] = biological target: T2, human LRRC15 expressed on cells (human, UniProt Q8TF66 22-581); experiment: flow cytometry, transfected HEK293, 0.004 µg/ml
T2 construct: whole, on cells; On HEK293 cells transfected with LRRC15/ZsGreen1 (Retrogenix), on HT29 cells transfected with human LRRC15, and endogenous on Saos-2; also called LRRC15/ZsGreen1 transfected HEK293 cells; HT29-LRRC15
T2 sequence (looked up): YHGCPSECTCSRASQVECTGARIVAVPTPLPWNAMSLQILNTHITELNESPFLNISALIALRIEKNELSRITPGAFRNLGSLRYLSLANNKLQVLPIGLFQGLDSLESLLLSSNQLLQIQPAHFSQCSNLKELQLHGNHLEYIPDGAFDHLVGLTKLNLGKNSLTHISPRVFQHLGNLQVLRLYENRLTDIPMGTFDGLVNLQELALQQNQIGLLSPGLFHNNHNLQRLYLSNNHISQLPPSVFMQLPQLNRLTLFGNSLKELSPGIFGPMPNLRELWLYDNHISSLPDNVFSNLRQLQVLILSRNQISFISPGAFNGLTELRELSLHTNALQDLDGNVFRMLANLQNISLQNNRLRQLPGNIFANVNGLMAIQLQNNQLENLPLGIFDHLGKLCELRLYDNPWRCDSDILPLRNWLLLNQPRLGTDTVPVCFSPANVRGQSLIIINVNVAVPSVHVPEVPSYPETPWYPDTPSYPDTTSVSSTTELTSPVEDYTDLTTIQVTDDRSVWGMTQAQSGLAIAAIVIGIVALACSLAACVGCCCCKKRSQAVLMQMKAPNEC

[4] = biological target: T2, human LRRC15 expressed on cells; experiment: flow cytometry, transfected HEK293, 2.5 µg/ml

Row | Binder | Complex Half Life [1] [h] | -TΔS [2] [kJ/mol] | ΔG^0 [2] [kJ/mol] | ΔH^0 [2] [kJ/mol] | Median Fluorescence AF647 [3] | Median Fluorescence AF647 [4]
1 | TPP-14389 (antibody, human IgG1, kappa, V domains shown, also called 13612-rec02-hIgG1Kappa) VH: EVQLLESGGGLVQPGGSLRLSCAASGFTFSGYMMSWVRQAPGKGLEWVSGIYPSPGYTYYADSVKGRFTISRDNSKNTLYLQMNSLRAEDTAVYYCAREKASDLFGSYSEALDYWGQGTLVTVSS VL: DIQMTQSPDSLSASVGDRVTITCRASQDVGSWLAWYQQKPGKAPKLLIFAASSLESGIPSRFSGSGSGTDFTLTISSLQPEDFATYYCQQANGFPLTFGGGTKVEIKR | 0.41 | 81 | -47 | -130 |  | 
2 | TPP-12942 (antibody, human IgG1, kappa, V domains shown, Prior art humanized IgG1 kappa antibody, used as comparator; also called huM25; huM25-hIgG1Kappa) VH: EVQLVQSGAEVKKPGASVKVSCKASGYKFSSYWIEWVKQAPGQGLEWIGEILPGSDTTNYNEKFKDRATFTSDTSINTAYMELSRLRSDDTAVYYCARDRGNYRAWFGYWGQGTLVTVSS VL: DIQMTQSPSSLSASVGDRVTITCRASQDISNYLNWYQQKPGGAVKFLIYYTSRLHSGVPSRFSGSGSGTDYTLTISSLQPEDFATYFCQQGEALPWTFGGGTKVEIKR | 0.218 | 28 | -44 | -71 | 19800 | 746000
3 | TPP-17078 (antibody, human IgG1, kappa, V domains shown, also called 438H-M308-H05-hIgGkappa) VH: EVQLVQSGAEVKKPGASVKVSCKASGYKFSSYWIEWVKQAPGQGLEWIGEILPGSDTTNYNEKFKDRATFTSDTSINTAYMELSRLRSDDTAVYYCARDRGNYRAWFGYWGQGTLVTVSS VL: DIQMTQSPSSLSASVGDRVTITCRASQSISSYLNWYQQKPGGAPKFLIYYASSLQSGVPSRFSGSGSGTDYTLTISSLQPEDFATYYCQQGFSLPWTFGGGTKVEIKR | 4.18 | 43 | -50 | -93 | 27600 | 777000
4 | TPP-17421 (antibody, human IgG1, kappa, V domains shown, also called 438H-M306-C11-hIgG1Kappa) VH: EVQLVQSGAEVKKPGASVKVSCKASGYKFSSYWIEWVKQAPGQGLEWIGEILPGSDWTNYNEKFKDRATFTSDTSINTAYMELSRLRSDDTAVYYCARDRGNYRAWFQYWGQGTLVTVSS VL: DIQMTQSPSSLSASVGDRVTITCRASQSISSYLNWYQQKPGGAPKFLIYYASSLQSGVPSRFSGSGSGTDYTLTISSLQPEDFATYYCQQGLELPWTFGGGTKVEIKR | 4.48 | -7.6 | -51 | -44 | 13100 | 649000
